{"source": "paper PMC4866497", "key": {"[1]": {"system": "MetMab full heavy chain with T366V K409V, with MetMab light chain", "assay": "SEC"}, "[2]": {"system": "MetMab full heavy chain with T366V K409V, with MetMab light chain", "assay": "SEC", "remark": "listed apart in the source"}, "[3]": {"system": "MetMab full heavy chain with K360D D399M Y407A, with MetMab light chain", "assay": "SEC"}, "[4]": {"system": "MetMab full heavy chain with K360D D399M Y407A, with MetMab light chain", "assay": "SEC", "remark": "listed apart in the source"}, "[5]": {"system": "MetMab full heavy chain with E345R Q347R T366V K409V, with MetMab light chain", "assay": "SEC"}, "[6]": {"system": "MetMab full heavy chain with E345R Q347R T366V K409V, with MetMab light chain", "assay": "SEC", "remark": "listed apart in the source"}, "[7]": {"system": "MetMab full heavy chain with T350V T366L K392L T394W, with MetMab light chain", "assay": "SEC"}, "[8]": {"system": "MetMab full heavy chain with T350V T366L K392L T394W, with MetMab light chain", "assay": "SEC", "remark": "listed apart in the source"}, "[9]": {"system": "MetMab full heavy chain with T350V L351Y F405A Y407V, with MetMab light chain", "assay": "SEC"}, "[10]": {"system": "MetMab full heavy chain with T350V L351Y F405A Y407V, with MetMab light chain", "assay": "SEC", "remark": "listed apart in the source"}, "[11]": {"system": "MetMab full heavy chain with D399M Y407A, with MetMab light chain", "assay": "SEC"}, "[12]": {"system": "MetMab full heavy chain with D399M Y407A, with MetMab light chain", "assay": "SEC", "remark": "listed apart in the source"}, "IgG1 Fc with T366V K409V": {"target": "IgG1 Fc with T366V K409V", "assay": "SEC"}, "[13]": {"system": "EGFR domain 3 - Fc with T350V T366L K392L T394W", "assay": "FRET or BRET"}, "[14]": {"system": "EGFR domain 3 - Fc with D399M Y407A", "assay": "FRET or BRET"}}, "note": "Like-named read-outs stand apart in the source and are kept apart here.", "data": [{"substance": "IgG1 Fc with D399M Y407A", "values": [{"measurement": "% AB heterodimer", "setting": "[1]", "value": 88.6, "unit": "%"}, {"measurement": "% AB heterodimer", "setting": "[2]", "value": 26.9, "unit": "%"}]}, {"substance": "IgG1 Fc with E345R Q347R T366V K409V", "values": [{"measurement": "% AB heterodimer", "setting": "[3]", "value": 92.9, "unit": "%"}, {"measurement": "% AB heterodimer", "setting": "[4]", "value": 46.2, "unit": "%"}]}, {"substance": "IgG1 Fc with K360D D399M Y407A", "values": [{"measurement": "% AB heterodimer", "setting": "[5]", "value": 93.3, "unit": "%"}, {"measurement": "% AB heterodimer", "setting": "[6]", "value": 32.5, "unit": "%"}]}, {"substance": "IgG1 Fc with T350V L351Y F405A Y407V", "values": [{"measurement": "% AB heterodimer", "setting": "[7]", "value": 94.3, "unit": "%"}, {"measurement": "% AB heterodimer", "setting": "[8]", "value": 18.3, "unit": "%"}]}, {"substance": "IgG1 Fc with T350V T366L K392L T394W", "values": [{"measurement": "% AB heterodimer", "setting": "[9]", "value": 87.6, "unit": "%"}, {"measurement": "% AB heterodimer", "setting": "[10]", "value": 25.6, "unit": "%"}]}, {"substance": "IgG1 Fc with T366V K409V", "values": [{"measurement": "% AB heterodimer", "setting": "[11]", "value": 89.9, "unit": "%"}, {"measurement": "% AB heterodimer", "setting": "[12]", "value": 42.3, "unit": "%"}]}, {"substance": "IgG1 Fc with T366V K409V (domain or fragment)", "values": [{"measurement": "% BB homodimer (co-expressed with m8)", "setting": "IgG1 Fc with T366V K409V", "value": 8.2, "unit": "%"}]}, {"substance": "VEGFR1 domain 3 - Fc with T350V L351Y F405A Y407V", "values": [{"measurement": "% AB heterodimer", "setting": "[13]", "value": 94.8, "unit": "%"}]}, {"substance": "VEGFR1 domain 3 - Fc with T366V K409V", "values": [{"measurement": "% AB heterodimer", "setting": "[14]", "value": 89, "unit": "%"}]}]}
